According to paper PMC8457375 (Chemical Science, 2021):

Assays:
FADD^DD [1] = biological target: FADD^DD (UniProt Q13158)
FADD^DD [2] = biological target: FADD^DD (UniProt Q13158); test: ITC
FADD^DD [3] = biological target: T1, FADD^DD (UniProt Q13158 97-181); test: cell-based or functional assay
T1 sequence: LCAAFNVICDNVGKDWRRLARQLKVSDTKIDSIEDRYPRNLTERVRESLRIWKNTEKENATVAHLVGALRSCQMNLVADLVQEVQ

FADD^DD [4] = biological target: T1, FADD^DD; test: ITC

## NleB1^EHEC (enzyme)
FADD^DD [1]
  Km for FADD^DD, glycosylation kinetics: 13 µM
FADD^DD [2]
  Kd: 200 nM

B1: S286Y^SseK1 (enzyme)
chain: MIPPLNRYVPALSKNELVKTVTNRDIQFTSFNGKDYPLCFLDEKTPLLFQWFERNPARFGKNDIPIINTEKNPYLNNIIKAATIEKERLIGIFVDGDFFPGQKDAFSKLEYDYENIKVIYRNDIDFSMYDKKLSEIYMENISKQESMPEEKRDCHLLQLLKKELSDIQEGNDSLIKSYLLDKGHGWFDFYRNMAMLKAGQLFLEADKVGCYDLSTNSGCIYLDADMIITEKLGGIYIPDGIAVHVERIDGRASMENGIIAVDRNNHPALLAGLEIMHTKFDADPYYDGVCNGIRKHFNYSLNEDYNSFCDFIEFKHDNIIMNTSQFTQSSWARHVQ
FADD^DD [3]
  Km for FADD^DD, glycosylation kinetics, fold worse than that of NleB1^EHEC: 4.4 fold
FADD^DD [4]
  fold by which the Kd of NleB1^EHEC is better: ~6 fold

B2: N302Y^SseK2 (enzyme)
chain: MARFNAAFTRIKIMFSRIRGLISCQSNTQTIAPTLSPPSSGHVSFAGIDYPLLPLNHQTPLVFQWFERNPDRFGQNEIPIINTQKNPYLNNIINAAIIEKERIIGIFVDGDFSKGQRKALGKLEQNYRNIKVIYNSDLNYSMYDKKLTTIYLENITKLEAQSASERDEVLLNGVKKSLEDVLKNNPEETLISSHNKDKGHLWFDFYRNLFLLKGSDAFLEAGKPGCHHLQPGGGCIYLDADMLLTDKLGTLYLPDGIAIHVSRKDNHVSLENGIIAVNRSEHPALIKGLEIMHSKPYGDPYYDWLSKGLRHYFDGSHIQDYDAFCDFIEFKHENIIMNTSSLTASSWR
FADD^DD [4]
  fold by which the Kd of NleB1^EHEC is better: ~472 fold
